Reference: PMC7201923

Target: KPNA2 (UniProt P52292)
Experiment: anti-FLAG co-IP, immunoblot
Conditions: sites S97

- binding against the reference: stronger
Substance: IRF3 (from UniProt Q14653)
